Laboratory results published in the supplement of paper PMC9112550, “Optimization of the antimicrobial peptide Bac7 by deep mutational scanning” (BMC Biology, 2022).

Test system: Escherichia coli TOP10
Assay: shrunken log2 fold change of peptide-encoding DNA abundance (4.5 h post-induction vs induction); higher = less antimicrobial activity (less host growth inhibition)
Conditions: time post-induction: 4.5 h; library: site-saturation at positions 5, 18, 19, 20
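Further: peptides expressed intracellularly from a pBAD plasmid library in pooled LB shake-flask culture, induced with 0.3% L-arabinose, DNA abundance read by NGS, three biological replicates, DESeq2 with apeglm shrinkage.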

| Sequence | shrunken log2 fold change |
| --- | --- |
| RRIRHRPPRLPRPRPRPRDEPRP | -0.0872 |
| RRIRWRPPRLPRPRPRPIIVPRP | -0.138 |
| RRIRWRPPRLPRPRPRPWWQPRP | 0.16 |
| RRIRLRPPRLPRPRPRPQCPPRP | -0.266 |
| RRIRERPPRLPRPRPRPLAFPRP | -0.0552 |
| RRIRARPPRLPRPRPRPVHKPRP | 0.2 |
| RRIRHRPPRLPRPRPRPTGIPRP | -0.0208 |
| RRIRERPPRLPRPRPRPDSAPRP | -0.213 |
| RRIRDRPPRLPRPRPRPLKKPRP | 0.31 |
| RRIRGRPPRLPRPRPRPGQVPRP | 0.11 |
| RRIRTRPPRLPRPRPRPLQLPRP | -0.167 |
| RRIRSRPPRLPRPRPRPVSTPRP | -0.187 |
| RRIRSRPPRLPRPRPRPFTQPRP | -0.403 |
| RRIRPRPPRLPRPRPRPMAIPRP | -0.0296 |
| RRIRGRPPRLPRPRPRPKWQPRP | 0.194 |
| RRIRMRPPRLPRPRPRPAHCPRP | 0.352 |
| RRIRLRPPRLPRPRPRPVTAPRP | 0.213 |
| RRIRIRPPRLPRPRPRPTSDPRP | -0.245 |
| RRIRSRPPRLPRPRPRPQQTPRP | 0.0905 |
| RRIRQRPPRLPRPRPRPHLGPRP | -0.00552 |
| RRIRNRPPRLPRPRPRPECEPRP | -0.0156 |
| RRIRPRPPRLPRPRPRPGHNPRP | -0.133 |
| RRIRHRPPRLPRPRPRPDCVPRP | -0.383 |
| RRIRVRPPRLPRPRPRPPFPPRP | 0.369 |
| RRIRIRPPRLPRPRPRPNEQPRP | 0.0369 |

| Sequence | shrunken log2 fold change |
| --- | --- |
| RRIRHRPPRLPRPRPRPSDRPRP | -0.125 |
| RRIRGRPPRLPRPRPRPYGNPRP | -0.102 |
| RRIRNRPPRLPRPRPRPCCNPRP | -0.432 |
| RRIRRRPPRLPRPRPRPMNYPRP | -0.0341 |
| RRIRGRPPRLPRPRPRPYRQPRP | -0.401 |
| RRIRVRPPRLPRPRPRPEKRPRP | -0.218 |
| RRIRIRPPRLPRPRPRPFLLPRP | -0.563 |
| RRIRIRPPRLPRPRPRPCDPPRP | 0.00225 |
| RRIRTRPPRLPRPRPRPTVHPRP | -0.199 |
| RRIRMRPPRLPRPRPRPNLSPRP | -0.436 |
| RRIRNRPPRLPRPRPRPDETPRP | -0.00208 |
| RRIRIRPPRLPRPRPRPVTSPRP | -0.0328 |
| RRIRGRPPRLPRPRPRPFKVPRP | -0.14 |
| RRIRDRPPRLPRPRPRPNPSPRP | 0.13 |
| RRIRNRPPRLPRPRPRPGKHPRP | -0.0999 |
| RRIRDRPPRLPRPRPRPHGVPRP | -0.00965 |
| RRIRNRPPRLPRPRPRPCIAPRP | -0.878 |
| RRIRHRPPRLPRPRPRPAQFPRP | -0.0111 |
| RRIRGRPPRLPRPRPRPVWLPRP | 0.649 |
| RRIRGRPPRLPRPRPRPFYHPRP | -0.102 |
| RRIRGRPPRLPRPRPRPHHYPRP | -0.524 |
| RRIRTRPPRLPRPRPRPQMEPRP | 0.00225 |
| RRIRNRPPRLPRPRPRPDSMPRP | -0.0386 |
| RRIRFRPPRLPRPRPRPSCRPRP | -0.145 |
| RRIRDRPPRLPRPRPRPSPTPRP | -0.0251 |

| Sequence | shrunken log2 fold change |
| --- | --- |
| RRIRGRPPRLPRPRPRPVKKPRP | 0.949 |
| RRIRDRPPRLPRPRPRPPNVPRP | -0.0362 |
| RRIRERPPRLPRPRPRPLMQPRP | 0.0114 |
| RRIRDRPPRLPRPRPRPNIAPRP | 0.169 |
| RRIRNRPPRLPRPRPRPIRFPRP | -0.0225 |
| RRIRQRPPRLPRPRPRPIYCPRP | -0.0315 |
| RRIRHRPPRLPRPRPRPNWKPRP | -0.0172 |
| RRIRIRPPRLPRPRPRPNIWPRP | 0.127 |
| RRIRWRPPRLPRPRPRPAQSPRP | 0.135 |
| RRIRIRPPRLPRPRPRPQHRPRP | -0.116 |
| RRIRDRPPRLPRPRPRPLDTPRP | 0.0803 |
| RRIRHRPPRLPRPRPRPNWDPRP | -0.332 |
| RRIRFRPPRLPRPRPRPLYCPRP | -0.937 |
| RRIRFRPPRLPRPRPRPWRMPRP | -0.166 |
| RRIRRRPPRLPRPRPRPRGFPRP | 0.131 |
| RRIRTRPPRLPRPRPRPGLSPRP | 0.0345 |
| RRIRYRPPRLPRPRPRPRCNPRP | -0.552 |
| RRIRRRPPRLPRPRPRPCVHPRP | -0.0733 |
| RRIRFRPPRLPRPRPRPFIKPRP | -0.648 |
| RRIRCRPPRLPRPRPRPGSCPRP | -0.0844 |
| RRIRPRPPRLPRPRPRPPALPRP | 0.388 |
| RRIRNRPPRLPRPRPRPFKHPRP | -0.39 |
| RRIRDRPPRLPRPRPRPEIYPRP | 0.0907 |
| RRIRARPPRLPRPRPRPCIKPRP | 0.126 |
| RRIRLRPPRLPRPRPRPKNDPRP | -0.563 |

| Sequence | shrunken log2 fold change |
| --- | --- |
| RRIRKRPPRLPRPRPRPFNHPRP | -0.993 |
| RRIRTRPPRLPRPRPRPPIFPRP | -0.245 |
| RRIRFRPPRLPRPRPRPQKPPRP | 0.121 |
| RRIRERPPRLPRPRPRPFIYPRP | -0.0998 |
| RRIRKRPPRLPRPRPRPEGVPRP | 1.44 |
| RRIRTRPPRLPRPRPRPNKGPRP | -0.28 |
| RRIRCRPPRLPRPRPRPTHDPRP | 0.302 |
| RRIRRRPPRLPRPRPRPCYPPRP | -0.0837 |
| RRIRKRPPRLPRPRPRPEPYPRP | -0.0587 |
| RRIRRRPPRLPRPRPRPRMAPRP | 0.294 |
| RRIRSRPPRLPRPRPRPRHEPRP | -0.0516 |
| RRIRWRPPRLPRPRPRPHECPRP | -0.0602 |
| RRIRSRPPRLPRPRPRPDQSPRP | 0.217 |
| RRIRYRPPRLPRPRPRPEMDPRP | -0.338 |
| RRIRARPPRLPRPRPRPVDTPRP | 0.186 |
| RRIRTRPPRLPRPRPRPEINPRP | -0.106 |
| RRIRDRPPRLPRPRPRPGDWPRP | 0.92 |
| RRIRWRPPRLPRPRPRPINVPRP | -0.0356 |
| RRIRPRPPRLPRPRPRPTCEPRP | 0.252 |
| RRIRKRPPRLPRPRPRPWLIPRP | 0.109 |
| RRIRDRPPRLPRPRPRPKRSPRP | -0.0252 |
| RRIRCRPPRLPRPRPRPMIQPRP | -0.417 |
| RRIRIRPPRLPRPRPRPDDCPRP | -0.271 |
| RRIRPRPPRLPRPRPRPFIPPRP | -0.266 |
| RRIRNRPPRLPRPRPRPFQPPRP | -0.0306 |

| Sequence | shrunken log2 fold change |
| --- | --- |
| RRIRGRPPRLPRPRPRPAKRPRP | 0.504 |
| RRIRIRPPRLPRPRPRPNPSPRP | 0.0641 |
| RRIRKRPPRLPRPRPRPVYDPRP | 0.0473 |
| RRIRVRPPRLPRPRPRPYFMPRP | -0.797 |
| RRIRMRPPRLPRPRPRPFSDPRP | -0.0199 |
| RRIRMRPPRLPRPRPRPFIEPRP | -0.0583 |
| RRIRPRPPRLPRPRPRPYKVPRP | -0.338 |
| RRIRQRPPRLPRPRPRPVGKPRP | -0.14 |
| RRIRMRPPRLPRPRPRPHWFPRP | 0.0685 |
| RRIRRRPPRLPRPRPRPECSPRP | -0.121 |
| RRIRCRPPRLPRPRPRPHCHPRP | -0.475 |
| RRIRWRPPRLPRPRPRPFSYPRP | -0.203 |
| RRIRMRPPRLPRPRPRPVWSPRP | 0.709 |
| RRIRGRPPRLPRPRPRPHARPRP | 0.629 |
| RRIRSRPPRLPRPRPRPWYTPRP | 0.0361 |
| RRIRRRPPRLPRPRPRPCYTPRP | -0.112 |
| RRIRCRPPRLPRPRPRPSSEPRP | -0.284 |
| RRIRARPPRLPRPRPRPRYAPRP | 0.495 |
| RRIRARPPRLPRPRPRPYWSPRP | -0.186 |
| RRIRPRPPRLPRPRPRPYFQPRP | -0.593 |
| RRIRCRPPRLPRPRPRPFSAPRP | -0.565 |
| RRIRNRPPRLPRPRPRPGPAPRP | 0.627 |
| RRIRIRPPRLPRPRPRPWQRPRP | -0.075 |
| RRIRFRPPRLPRPRPRPLYKPRP | -0.813 |
| RRIRHRPPRLPRPRPRPDKRPRP | -0.0145 |
